# From IntAct's records for PubMed 23736261
# B1: Catenin beta-1 (Homo sapiens), P35222 (parent)
# chain: MATQADLMELDMAMEPDRKAAVSHWQQQSYLDSGIHSGATTTAPSLSGKGNPEEEDVDTSQVLYEWEQGFSQSFTQEQVADIDGQYAMTRAQRVRAAMFPETLDEGMQIPSTQFDAAHPTNVQRLAEPSQMLKHAVVNLINYQDDAELATRAIPELTKLLNDEDQVVVNKAAVMVHQLSKKEASRHAIMRSPQMVSAIVRTMQNTNDVETARCTAGTLHNLSHHREGLLAIFKSGGIPALVKMLGSPVDSVLFYAITTLHNLLLHQEGAKMAVRLAGGLQKMVALLNKTNVKFLAITTDCLQILAYGNQESKLIILASGGPQALVNIMRTYTYEKLLWTTSRVLKVLSVCSSNKPAIVEAGGMQALGLHLTDPSQRLVQNCLWTLRNLSDAATKQEGMEGLLGTLVQLLGSDDINVVTCAAGILSNLTCNNYKNKMMVCQVGGIEALVRTVLRAGDREDITEPAICALRHLTSRHQEAEMAQNAVRLHYGLPVVVKLLHPPSHWPLIKATVGLIRNLALCPANHAPLREQGAIPRLVQLLVRAHQDTQRRTSMGGTQQQFVEGVRMEEIVEGCTGALHILARDVHNRIVIRGLNTIPLFVQLLYSPIENIQRVAAGVLCELAQDKEAAEAIEAEGATAPLTELLHSRNEGVATYAAAVLFRMSEDKPQDYKKRLSVELTSSLFRTEPMAWNETADLGLDIGAQGEPLGYRQDDPSYRSFHSGGYGQDALGMDPMMEHEMGGHHPGADYPVDGLPDLGHAQDLMDGLPPGDSNQLAWFDTDL
# Variants of: B1
# Conditions: with mlp3b_human MAP1LC3B
row,effect of a mutation on the interaction,Variant
1,disrupting interaction,W504A;I507A

# Variants of: B1
# Conditions: with mlp3b_human MAP1LC3B
# Remark: another data set of the same source
row,effect of a mutation on the interaction,Variant
1,decreasing interaction,W504A;I507A
